Experimental data from patent US20230391826A1 (SANFORD BURNHAM PREBYS MEDICAL DISCOVERY INSTITUTE, published 2023).
Where two headings read alike, the source gives them in different places. Where no end group is shown, it is not given here.

What was measured:
[1] = molecular target: T1, EphA2 endogenously expressed on PC3 prostate cancer cells (UniProt P29317 24-976, limits assumed); assay: cell-based or functional assay
[2] = molecular target: T1, EphA2 endogenously expressed on PC3 …; assay: cell-based or functional assay; remark: listed apart in the source
[3] = molecular target: T2, EphA2 ligand binding domain (EphA2 LBD), residues 28-200 (UniProt P29317 28-200); assay: ITC, soluble EphA2 LBD and peptide
T2 construct: range 28-200; Expressed in E. coli; also called soluble EphA2 LBD; soluble monomeric EphA2 LBD
T2 sequence (P29317 other isoform, or with tags, fused parts or gaps limits assumed, form in doubt): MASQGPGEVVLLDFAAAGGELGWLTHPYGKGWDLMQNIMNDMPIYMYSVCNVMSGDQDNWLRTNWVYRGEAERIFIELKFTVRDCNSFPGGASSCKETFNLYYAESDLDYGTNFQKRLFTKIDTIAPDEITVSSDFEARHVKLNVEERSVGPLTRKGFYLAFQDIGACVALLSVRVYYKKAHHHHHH

[4] = molecular target: T2, EphA2 ligand binding domain (EphA2 …); assay: ITC, soluble EphA2 LBD and peptide; remark: listed apart in the source
Procedure: (§1) For ITC, all peptides are dissolved in DMSO and both the EphA2 LBD and the peptides are diluted to obtain a final buffer containing 9.5 mM HEPES, pH 7.9, 95 mM NaCl, and 5% DMSO. The experiments are carried out at 296 K (23° C.) using an ITC200 calorimeter (Microcal). Two-microliter aliquots of a peptide solution are injected into the cell containing 205 μL EphA2 LBD. 200-400 μM peptides are titrated into 20-40 μM EphA2 LBD. Experimental data are analyzed using the Origin software package (Microcal). The integrated values for the reaction heats are normalized to the amount of injected peptide after blank subtraction.

[5] = molecular target: T2, EphA2 ligand binding domain (EphA2 …); assay: ITC, soluble EphA2 LBD and peptide; remark: listed apart in the source
Procedure: as §1

[6] = molecular target: T3, EphA2 extracellular domain fused to the Fc portion of an antibody (EphA2-Fc); assay: ELISA, inhibition of ephrinA5-AP binding to immobilized EphA2-Fc
T3 construct: extracellular domain; Immobilized on the ELISA wells; also called immobilized EphA2
T3 sequence (P29317 whole entry, the tested form may be a part): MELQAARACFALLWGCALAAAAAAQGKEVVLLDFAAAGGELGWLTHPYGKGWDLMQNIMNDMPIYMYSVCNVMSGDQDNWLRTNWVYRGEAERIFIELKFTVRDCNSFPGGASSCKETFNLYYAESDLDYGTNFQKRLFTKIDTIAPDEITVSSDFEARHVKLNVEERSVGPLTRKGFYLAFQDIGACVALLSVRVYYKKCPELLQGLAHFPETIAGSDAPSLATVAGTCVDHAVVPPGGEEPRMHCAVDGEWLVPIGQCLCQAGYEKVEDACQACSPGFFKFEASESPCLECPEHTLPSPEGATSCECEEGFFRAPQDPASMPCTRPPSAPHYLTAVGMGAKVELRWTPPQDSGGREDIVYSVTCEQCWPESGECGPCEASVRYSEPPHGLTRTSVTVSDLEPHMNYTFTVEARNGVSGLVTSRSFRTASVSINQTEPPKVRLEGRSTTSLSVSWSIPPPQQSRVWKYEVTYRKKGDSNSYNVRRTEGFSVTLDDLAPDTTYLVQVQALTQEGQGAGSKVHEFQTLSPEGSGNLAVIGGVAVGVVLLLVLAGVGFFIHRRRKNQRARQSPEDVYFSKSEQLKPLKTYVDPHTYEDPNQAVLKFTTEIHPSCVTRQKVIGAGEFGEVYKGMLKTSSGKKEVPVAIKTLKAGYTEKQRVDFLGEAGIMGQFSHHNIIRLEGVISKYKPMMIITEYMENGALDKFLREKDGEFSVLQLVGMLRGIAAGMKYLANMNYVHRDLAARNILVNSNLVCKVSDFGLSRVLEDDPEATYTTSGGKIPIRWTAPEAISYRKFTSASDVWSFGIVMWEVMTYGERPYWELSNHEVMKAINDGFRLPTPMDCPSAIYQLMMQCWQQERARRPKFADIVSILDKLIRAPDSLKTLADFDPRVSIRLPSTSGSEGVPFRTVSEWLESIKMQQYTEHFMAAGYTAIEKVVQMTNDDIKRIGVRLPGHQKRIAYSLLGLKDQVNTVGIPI

[7] = molecular target: T3, EphA2 extracellular domain fused to the …; assay: as above; remark: listed apart in the source
[8] = molecular target: T2, EphA2 ligand binding domain (EphA2 …); assay: ITC, EphA2 LBD (200-250 µM) titrated into 10-12.5 µM peptide; single titration shown
[9] = molecular target: T3, EphA2 extracellular domain fused to the …; assay: ELISA, inhibition of ephrinA5-AP binding to immobilized EphA2-Fc; representative experiment, triplicates

T1 sequence (P29317 24-976 limits assumed): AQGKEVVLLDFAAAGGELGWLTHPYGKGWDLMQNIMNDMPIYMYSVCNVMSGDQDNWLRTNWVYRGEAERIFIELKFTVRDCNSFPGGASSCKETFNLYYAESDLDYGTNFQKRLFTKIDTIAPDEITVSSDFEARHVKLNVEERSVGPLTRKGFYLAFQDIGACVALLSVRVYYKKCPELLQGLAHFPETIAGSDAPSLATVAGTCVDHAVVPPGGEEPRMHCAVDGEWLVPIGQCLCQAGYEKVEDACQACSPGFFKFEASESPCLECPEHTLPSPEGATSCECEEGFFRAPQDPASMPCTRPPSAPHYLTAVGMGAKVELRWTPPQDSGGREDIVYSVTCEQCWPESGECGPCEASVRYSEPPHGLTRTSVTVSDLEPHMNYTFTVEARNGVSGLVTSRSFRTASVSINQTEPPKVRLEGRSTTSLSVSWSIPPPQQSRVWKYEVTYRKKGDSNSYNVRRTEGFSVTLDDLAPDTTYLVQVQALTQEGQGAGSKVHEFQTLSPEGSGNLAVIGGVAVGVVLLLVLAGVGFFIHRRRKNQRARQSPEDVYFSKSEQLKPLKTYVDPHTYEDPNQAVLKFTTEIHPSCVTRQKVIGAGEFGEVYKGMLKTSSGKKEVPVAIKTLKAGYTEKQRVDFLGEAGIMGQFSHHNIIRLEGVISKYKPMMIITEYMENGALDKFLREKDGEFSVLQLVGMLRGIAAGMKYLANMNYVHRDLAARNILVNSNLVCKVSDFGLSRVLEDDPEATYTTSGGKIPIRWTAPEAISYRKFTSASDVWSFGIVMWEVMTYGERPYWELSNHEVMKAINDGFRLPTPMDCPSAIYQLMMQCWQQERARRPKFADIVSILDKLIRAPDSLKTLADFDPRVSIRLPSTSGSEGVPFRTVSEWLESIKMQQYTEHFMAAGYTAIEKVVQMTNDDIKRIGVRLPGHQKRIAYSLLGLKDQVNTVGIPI

- Blig (bias factor) [1]: 0.81
- EC50 PY588 [1]: 0.53 nM
- Emax PY588 [1]: 0.78 normalized to ephrinA1-Fc
- IC50 PAKT [1]: 0.068 nM
- EC50 pAKT inhib [2]: 90 pM
- Etop pAKT inhib [2]: 1
- Etop pY588 [2]: 0.87 normalized to ephrinA1-Fc
- βlig (bias factor) [2]: 0.66
- Kd [3]: 380 nM
- N (binding stoichiometry) [3]: 2.2
- Kd [4]: 21 nM
- N (binding stoichiometry) [4]: 2.2
- -TΔS [5]: 21.9 kcal/mol
- Kd [5]: 21 nM
- N (binding stoichiometry) [5]: 2.2
- ΔG [5]: -10.4 kcal/mol
- ΔH [5]: -32.3 kcal/mol
- IC50 [6]: 0.65 nM
- IC50 [7]: 0.66 nM
- Kd [8]: 18 nM
- IC50 [9]: 0.79 nM
B1: CGA-WLA-YRPK dimer (N-ter) (peptide)
peptide: CGAWLAYPDSVPYRPK
modifications: also: N-terminally disulfide-linked homodimer, disulfide at 1, other end not in the chain
notes: also called dimer (5); dimeric peptide (5)
